Data from article doi:10.1101/2023.03.31.534734 (bioRxiv, 2023).

Biological target: recombinant, non-biotinylated HLA-A*01:01 (α-chain, β2m, peptide […]) (Homo sapiens, HLA-A*01:01; peptide from …, strain)
Test: crystal structure

B1: Fab of rmAb E07 (Fab, V domains shown)
VH: QVQLQESGGGVVQPGGSLRLSCAASGFNFSNYGMHWVRQTPGKGLEWVASIPYDGSHQWHADSVKGRFTISRDNSKNTLYLQINSLRPEDTAMYYCSKARISYLSAPAWWFDPWGQGTLVTVSS
VL: QSVSTQPPSVSVAPGQTARITCGGNNIGSKSVHWYRQKPGQAPVLVVYDNNARPSGIPERISGSNFANTATLTISRVEAGDEADYYCHVWDSSSDHVVFGGGTKLTVL
binding result: binds
